From the supplement of paper PMC7125110
± gives the standard error. This sample holds only a part of the variants without activity.

B1: glmS ribozyme (parent)
chain: AUAAAAGCGCCAGAACUACAGAAAUGUAGUUGACGAGGAGGAGGUUUAUCGAAUUUUCGGCGGAUGCCUCCAAA

Experiments:
Conditions in all cases: with glucosamine-6-phosphate
glucosamine-6-phosphate [1] = variants of: B1; experiment: self-cleavage kobs at 40 uM GlcN6P; higher = faster cleavage; RNA array
How it was run: (§1)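 Barcoded ribozyme variants, transcribed in situ by E. coli RNA polymerase on sequenced MiSeq chips, were followed via a hybridised Cy3 probe at 37 °C. Glucosamine-6-phosphate ranged from 40 μM to 10 mM in HEPES/KCl/Mg(OAc)2 buffer. kobs came from decay fits to per-tile medians, and kcat and KM from weighted Michaelis–Menten fits.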

glucosamine-6-phosphate [2] = variants of: B1; experiment: self-cleavage kobs at 160 uM GlcN6P; higher = faster cleavage; RNA array
How it was run: as §1

glucosamine-6-phosphate [3] = variants of: B1; experiment: self-cleavage kobs at 640 uM GlcN6P; higher = faster cleavage; RNA array
How it was run: as §1

glucosamine-6-phosphate [4] = variants of: B1; experiment: self-cleavage kobs at 2500 uM GlcN6P; higher = faster cleavage; RNA array
How it was run: as §1

glucosamine-6-phosphate [5] = variants of: B1; experiment: self-cleavage kobs at 10000 uM GlcN6P; higher = faster cleavage; RNA array
How it was run: as §1

| Variant | self-cleavage kobs at 40 uM GlcN6P (glucosamine-6-phosphate [1]) [s⁻¹] | self-cleavage kobs at 160 uM GlcN6P (glucosamine-6-phosphate [2]) [s⁻¹] | self-cleavage kobs at 640 uM GlcN6P (glucosamine-6-phosphate [3]) [s⁻¹] | self-cleavage kobs at 2500 uM GlcN6P (glucosamine-6-phosphate [4]) [s⁻¹] | self-cleavage kobs at 10000 uM GlcN6P (glucosamine-6-phosphate [5]) [s⁻¹] |
| --- | --- | --- | --- | --- | --- |
| U57C C61U | < 1e-05 | < 1e-05 | < 1e-05 | < 1e-05 | < 1e-05 |
| G51C C58U C68A | < 1e-05 |  |  |  |  |
| A48C U65G | < 1e-05 | < 1e-05 |  |  |  |
| A53G G62A C67U | < 1e-05 |  |  |  |  |
| U49C G63A A64C | < 1e-05 |  |  |  |  |
| C50G A64G C71A | 8.51e-05 ± 2.3e-05 |  |  |  | 9.96e-05 ± 2.1e-05 |
| C50G G63A | 5.7e-05 ± 1.5e-05 | 0.000484 ± 0.00023 | 4e-05 ± 1.7e-05 | 3.78e-05 ± 1.6e-05 |  |
| U55C G63A | < 1e-05 | < 1e-05 |  | < 1e-05 | < 1e-05 |
| U54G U69C | 0.00112 ± 0.00028 | 0.000153 ± 6e-05 | 0.000689 ± 0.00017 | 0.00133 ± 0.00041 | 0.00526 ± 0.0011 |
| C50G U54G G60A C70G | < 1e-05 |  | < 1e-05 |  |  |
| U54A C68G C70U | 8.05e-05 ± 2.2e-05 |  |  |  |  |
| U54C C67U | 0.000255 ± 4.3e-05 | 0.000586 ± 0.00012 | 0.000928 ± 0.00027 | 0.00157 ± 0.00051 | 0.0047 ± 0.0014 |
| G51A U57A | < 1e-05 |  |  |  | < 1e-05 |
| U57G G63U | < 1e-05 | < 1e-05 |  | < 1e-05 | < 1e-05 |
| U56C G60U C68U | < 1e-05 |  |  |  |  |
| A53G G62A | < 1e-05 |  | < 1e-05 |  | < 1e-05 |
| G51U A53G A64G U65G | < 1e-05 |  |  |  | < 1e-05 |
| A52C A64U | < 1e-05 | < 1e-05 | < 1e-05 | < 1e-05 | < 1e-05 |
| U56A C61U | < 1e-05 | < 1e-05 |  |  |  |
| A52G U57G | 5.61e-05 ± 1.6e-05 | 0.000188 ± 6.1e-05 | 0.000523 ± 0.00014 | 0.00103 ± 0.00019 | 0.00397 ± 0.00056 |
| G59A A64G U69G | < 1e-05 |  |  |  |  |
| U54A G66A C67G | 5.57e-05 ± 1.5e-05 |  |  | 0.000119 ± 4.7e-05 | 0.000693 ± 0.00017 |

| Variant | self-cleavage kobs at 40 uM GlcN6P (glucosamine-6-phosphate [1]) [s⁻¹] | self-cleavage kobs at 160 uM GlcN6P (glucosamine-6-phosphate [2]) [s⁻¹] | self-cleavage kobs at 640 uM GlcN6P (glucosamine-6-phosphate [3]) [s⁻¹] | self-cleavage kobs at 2500 uM GlcN6P (glucosamine-6-phosphate [4]) [s⁻¹] | self-cleavage kobs at 10000 uM GlcN6P (glucosamine-6-phosphate [5]) [s⁻¹] |
| --- | --- | --- | --- | --- | --- |
| C58A G63U | < 1e-05 | < 1e-05 | < 1e-05 | < 1e-05 |  |
| U49G G51A G63A | < 1e-05 |  |  |  | < 1e-05 |
| U55G U56A | 0.000287 ± 6.6e-05 |  | 0.00208 ± 0.00047 | 0.00834 ± 0.0016 | 0.0131 ± 0.0051 |
| A52U U55A U57C C67A | < 1e-05 |  |  |  | < 1e-05 |
| U54C G63U A64C | < 1e-05 |  |  |  | < 1e-05 |
| U54C C68U | 0.000265 ± 3.7e-05 | 0.000635 ± 8.4e-05 | 0.000868 ± 0.00023 | 0.00216 ± 0.0005 | 0.0106 ± 0.0023 |
| G51U A53G | < 1e-05 | < 1e-05 | < 1e-05 | < 1e-05 |  |
| U55G C67U | 0.000342 ± 3.5e-05 | 0.000573 ± 9.2e-05 | 0.000864 ± 0.00017 | 0.00136 ± 0.00026 | 0.0121 ± 0.0017 |
| C50G G62A C68A | 6.73e-05 ± 1.6e-05 |  |  |  | 9.9e-05 ± 2.3e-05 |
| G51C | < 1e-05 | < 1e-05 | < 1e-05 | < 1e-05 | < 1e-05 |
| C58U U65G | < 1e-05 | < 1e-05 | < 1e-05 |  |  |
| G51C G62A | < 1e-05 |  | < 1e-05 | < 1e-05 | < 1e-05 |
| U54G C68U | 0.000327 ± 2.5e-05 | 0.000869 ± 0.00021 | 0.000824 ± 0.00012 | 0.0036 ± 0.00084 | 0.00395 ± 0.00053 |
| A53U C61A | < 1e-05 |  |  |  | < 1e-05 |
| A53U U56A C70U | 0.000179 ± 3.4e-05 |  |  |  | 0.00382 ± 0.0011 |
| G51C C70A | < 1e-05 |  | < 1e-05 |  |  |
| C50G G60C C67U | 6.17e-05 ± 1.7e-05 |  | 0.000438 ± 0.00012 | 0.000124 ± 3.4e-05 | 4.29e-05 ± 1.2e-05 |
| U56A C71U | 0.000282 ± 3.8e-05 | 0.000738 ± 0.00012 | 0.00243 ± 0.00036 | 0.0201 ± 0.0072 | 0.018 ± 0.0044 |
| G51U A64G | < 1e-05 | < 1e-05 |  | < 1e-05 |  |
| A53U C67U | 0.000272 ± 2.9e-05 | 0.000713 ± 8.9e-05 | 0.00132 ± 0.00019 | 0.0104 ± 0.0027 | 0.0214 ± 0.0049 |
| A52C A53U G59A A64C | < 1e-05 |  | < 1e-05 |  |  |
